Experimental data as given in US20220017591A1 (AstraZeneca / MedImmune, published 2022).
Read-outs that look alike come from different tables or passages of the source.

Columns and labels:
Assay in all cases: cell-based or functional assay
human RXFP2 [1] = target: T1, human RXFP2 (human, UniProt Q8WXD0 1-754)
human RXFP1 [2] = target: T2, human RXFP1 (human, UniProt Q9HBX9 1-757)
T2 sequence (looked up): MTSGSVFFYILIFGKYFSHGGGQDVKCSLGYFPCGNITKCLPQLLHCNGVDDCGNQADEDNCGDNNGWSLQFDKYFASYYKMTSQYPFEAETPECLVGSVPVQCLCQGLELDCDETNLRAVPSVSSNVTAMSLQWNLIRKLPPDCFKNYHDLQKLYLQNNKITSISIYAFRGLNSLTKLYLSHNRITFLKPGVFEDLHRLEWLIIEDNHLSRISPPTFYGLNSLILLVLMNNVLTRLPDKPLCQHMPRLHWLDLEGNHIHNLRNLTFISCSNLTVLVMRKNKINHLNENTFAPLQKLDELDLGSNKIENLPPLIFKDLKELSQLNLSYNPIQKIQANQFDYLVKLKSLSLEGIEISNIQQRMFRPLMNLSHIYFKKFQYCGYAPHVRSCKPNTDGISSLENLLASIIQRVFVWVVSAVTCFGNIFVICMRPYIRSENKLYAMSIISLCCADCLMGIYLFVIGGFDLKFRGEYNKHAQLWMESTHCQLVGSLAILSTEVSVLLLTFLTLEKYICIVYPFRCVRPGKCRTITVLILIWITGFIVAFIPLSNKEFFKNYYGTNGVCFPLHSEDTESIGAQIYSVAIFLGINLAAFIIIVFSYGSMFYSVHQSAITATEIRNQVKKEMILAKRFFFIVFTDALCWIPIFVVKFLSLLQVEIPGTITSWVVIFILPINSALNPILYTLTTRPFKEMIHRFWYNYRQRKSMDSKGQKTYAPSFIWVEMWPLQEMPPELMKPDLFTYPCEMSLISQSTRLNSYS

mouse RXFP1 [3] = target: T3, mouse RXFP1 (mouse, UniProt Q6R6I7 1-758)
T3 sequence (looked up): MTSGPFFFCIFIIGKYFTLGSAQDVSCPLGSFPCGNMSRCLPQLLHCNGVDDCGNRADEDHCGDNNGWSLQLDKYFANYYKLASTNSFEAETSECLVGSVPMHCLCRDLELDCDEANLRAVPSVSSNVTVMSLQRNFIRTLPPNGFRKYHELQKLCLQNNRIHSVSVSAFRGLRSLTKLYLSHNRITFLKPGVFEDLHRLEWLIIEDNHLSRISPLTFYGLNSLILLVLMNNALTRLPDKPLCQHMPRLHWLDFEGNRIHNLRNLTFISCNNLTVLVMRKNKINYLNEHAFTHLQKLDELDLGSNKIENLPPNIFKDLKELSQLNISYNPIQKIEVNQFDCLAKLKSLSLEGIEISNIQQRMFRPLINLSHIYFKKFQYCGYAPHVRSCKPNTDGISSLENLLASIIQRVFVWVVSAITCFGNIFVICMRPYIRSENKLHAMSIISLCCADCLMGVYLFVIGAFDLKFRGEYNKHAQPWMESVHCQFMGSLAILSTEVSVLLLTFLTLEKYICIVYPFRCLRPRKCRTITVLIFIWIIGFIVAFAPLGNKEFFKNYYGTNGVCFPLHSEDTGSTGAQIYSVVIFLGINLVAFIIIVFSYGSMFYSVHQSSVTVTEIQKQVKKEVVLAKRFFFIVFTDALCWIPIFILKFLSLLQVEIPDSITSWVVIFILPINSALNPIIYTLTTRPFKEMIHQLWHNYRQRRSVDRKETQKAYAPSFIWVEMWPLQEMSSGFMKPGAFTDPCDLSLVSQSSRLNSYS

human RXFP1 [4] = target: T2, human RXFP1; remark: listed apart in the source
human RXFP2 [5] = target: T1, human RXFP2; remark: listed apart in the source
human RXFP1 [6] = target: T2, human RXFP1; remark: listed apart in the source
mouse RXFP1 [7] = target: T3, mouse RXFP1; remark: listed apart in the source
human RXFP2 [8] = target: T1, human RXFP2; remark: listed apart in the source
human RXFP1 [9] = target: T2, human RXFP1; remark: listed apart in the source
mouse RXFP1 [10] = target: T3, mouse RXFP1; remark: listed apart in the source

T1 sequence (Q8WXD0 whole entry): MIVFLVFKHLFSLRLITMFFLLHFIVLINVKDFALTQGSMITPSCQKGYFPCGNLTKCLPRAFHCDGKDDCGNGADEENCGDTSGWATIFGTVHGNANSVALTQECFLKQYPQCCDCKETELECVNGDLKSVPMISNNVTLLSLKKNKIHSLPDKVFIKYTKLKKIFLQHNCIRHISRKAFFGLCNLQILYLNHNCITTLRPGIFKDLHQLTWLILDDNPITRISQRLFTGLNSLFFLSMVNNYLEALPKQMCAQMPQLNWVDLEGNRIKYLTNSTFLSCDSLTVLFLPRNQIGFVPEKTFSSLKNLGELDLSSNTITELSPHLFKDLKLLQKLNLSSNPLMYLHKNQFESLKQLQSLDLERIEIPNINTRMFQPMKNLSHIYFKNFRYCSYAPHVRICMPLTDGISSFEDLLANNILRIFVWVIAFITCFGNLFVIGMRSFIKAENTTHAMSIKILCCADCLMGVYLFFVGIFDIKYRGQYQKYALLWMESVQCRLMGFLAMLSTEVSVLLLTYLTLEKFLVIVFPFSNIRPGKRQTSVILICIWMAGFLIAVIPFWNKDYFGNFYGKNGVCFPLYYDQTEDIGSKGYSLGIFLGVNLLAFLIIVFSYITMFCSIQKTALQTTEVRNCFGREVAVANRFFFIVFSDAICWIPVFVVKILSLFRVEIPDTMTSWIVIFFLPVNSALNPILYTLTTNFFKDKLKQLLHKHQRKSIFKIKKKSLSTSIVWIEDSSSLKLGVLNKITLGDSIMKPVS

B1: RELAX0117 (Fc fusion)
chain 1: QLYSALANKCCHVGCTKRSLARFCAAAGGGGSGGGGSGGGGSGGGGSACPPCPAPEFEGGPSVFLFPPKPKDTLMISRTPEVTCVVVDVSHEDPEVKFNWYVDGVEVHNAKTKPREEQYNSTYRVVSVLTVLHQDWLNGKEYKCKVSNKALPASIEKTISKAKGQPREPQVYTLPPCREEMTKNQVSLWCLVKGFYPSDIAVEWESNGQPENNYKTTPPVLDSDGSFFLYSKLTVDKSRWQQGNVFSCSVMHEALHNHYTQKSLSLSPGGGGGSGGGGSGGGGSGGGGGSQLYSALANKCCHVGCTKRSLARFC
chain 2: SWMEEVIKLCGRELVRAQIAICGMSTWSAAAGGGGSGGGGSGGGGSGGGGSACPPCPAPEFEGGPSVFLFPPKPKDTLMISRTPEVTCVVVDVSHEDPEVKFNWYVDGVEVHNAKTKPREEQYNSTYRVVSVLTVLHQDWLNGKEYKCKVSNKALPASIEKTISKAKGQPREPQVCTLPPSREEMTKNQVSLSCAVKGFYPSDIAVEWESNGQPENNYKTTPPVLDSDGSFFLVSKLTVDKSRWQQGNVFSCSVMHEALHNHYTQKSLSLSPGGGGGSGGGGSGGGGSGGGGGSSWMEEVIKLCGRELVRAQIAICGMSTWS
Human RXFP2 [1]
  EC50 hRXFP2 (M), cAMP assay: 1.61e-08 M
Human RXFP1 [2]
  EC50 hRXFP1 (M), cAMP assay: 1.06e-11 M
Mouse RXFP1 [3]
  EC50 mRXFP1 (M), cAMP assay: 1.74e-11 M
Human RXFP1 [4]
  biological activity (EC50), cAMP assay: ~10 pM

B2: RELAX0014 (recombinant murine Relaxin-1) (ligand)
chain 1: MRVSEEWMDGFIRMCGREYARELIKICGASVGR
chain 2: ESGGLMSQQCCHVGCSRRSIAKLYC
Human RXFP2 [1]
  EC50 hRXFP2 (M), cAMP assay: 1.78e-12 M
Human RXFP1 [2]
  EC50 hRXFP1 (M), cAMP assay: 4.47e-12 M
Mouse RXFP1 [3]
  EC50 mRXFP1 (M), cAMP assay: 2.37e-12 M
Human RXFP2 [5]
  EC50 hRXFP2 (M), cAMP assay: 1.78e-12 M
Human RXFP1 [6]
  EC50 hRXFP1 (M), cAMP assay: 4.47e-12 M
Mouse RXFP1 [7]
  EC50 mRXFP1 (M), cAMP assay: 2.37e-12 M
Human RXFP2 [8]
  EC50 hRXFP2 (M), cAMP assay: 1.78e-12 M
Human RXFP1 [9]
  EC50 hRXFP1 (M), cAMP assay: 4.47e-12 M
Mouse RXFP1 [10]
  EC50 mRXFP1 (M), cAMP assay: 2.37e-12 M

B3: RELAX0021 (Fc fusion)
chain 1: GGAGGACPPCPAPEFEGGPSVFLFPPKPKDTLMISRTPEVTCVVVDVSHEDPEVKFNWYVDGVEVHNAKTKPREEQYNSTYRVVSVLTVLHQDWLNGKEYKCKVSNKALPASIEKTISKAKGQPREPQVYTLPPSREEMTKNQVSLWCLVKGFYPSDIAVEWESNGQPENNYKTTPPVLDSDGSFFLYSKLTVDKSRWQQGNVFSCSVMHEALHNHYTQKSLSLSPGGGGGSGGGGSGGGGSGGGGGSQLYSALANKCCHVGCTKRSLARFC
chain 2: GGAGGACPPCPAPEFEGGPSVFLFPPKPKDTLMISRTPEVTCVVVDVSHEDPEVKFNWYVDGVEVHNAKTKPREEQYNSTYRVVSVLTVLHQDWLNGKEYKCKVSNKALPASIEKTISKAKGQPREPQVYTLPPSREEMTKNQVSLSCAVKGFYPSDIAVEWESNGQPENNYKTTPPVLDSDGSFFLVSKLTVDKSRWQQGNVFSCSVMHEALHNHYTQKSLSLSPGGGGGSGGGGSGGGGSGGGGGSSWMEEVIKLCGRELVRAQIAICGMSTWS
Human RXFP1 [2]
  EC50 hRXFP1 (M), cAMP assay: 8.27e-11 M
Mouse RXFP1 [3]
  EC50 mRXFP1 (M), cAMP assay: 4.14e-11 M
Human RXFP1 [4]
  biological activity (EC50), cAMP assay: ~80 pM
